Values quoted from earlier work in publication PMC5371392.

Target: KaiC (Synechococcus elongatus) (UniProt Q79PF4)
Chain of UniProt Q79PF4 (Q79PF4 whole entry): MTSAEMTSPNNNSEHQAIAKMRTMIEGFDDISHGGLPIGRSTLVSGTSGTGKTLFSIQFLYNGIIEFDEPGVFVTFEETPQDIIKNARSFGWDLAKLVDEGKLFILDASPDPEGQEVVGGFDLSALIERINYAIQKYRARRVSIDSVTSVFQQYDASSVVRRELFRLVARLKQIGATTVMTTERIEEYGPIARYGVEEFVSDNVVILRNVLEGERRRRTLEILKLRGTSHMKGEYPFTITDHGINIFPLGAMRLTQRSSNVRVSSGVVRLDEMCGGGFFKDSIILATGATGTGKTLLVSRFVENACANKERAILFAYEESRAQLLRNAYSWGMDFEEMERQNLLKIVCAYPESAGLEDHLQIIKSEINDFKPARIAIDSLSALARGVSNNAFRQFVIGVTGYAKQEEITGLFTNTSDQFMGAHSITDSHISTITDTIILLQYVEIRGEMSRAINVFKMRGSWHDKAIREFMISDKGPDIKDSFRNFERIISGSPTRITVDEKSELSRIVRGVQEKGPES

KaiA (from UniProt Q79PF6)
Kd: 1 nM
